Assay: label from the status in PepcDB records

Sequence	protein production
MKYLAFSIVFILTAFTRVTAQNLDGIDKSLSLSKMKTRARIAEETGDIYTALFYYEEVVRNDSSDLKALYQVAEMQRFTRNYKAAEVTYGKIHEIAAADYPLAQYYQGLMQKMTGRYEDAKQTFSEFRKNSAALADKTFKATLARDISGCDSGITYRDFPQNTQIKNAGKSVNFPHTEFSPVILDSTTLAFGSLRIDSVIYYDTRGEHYEKQPVRQLYEAKKVKGQWVEKGLLEAINDPAMDMGNFVYSPTTDRYYFTKCTKNHHGKVSCAIYYSERVSGKWSHPSKLPDPINIEGYTATQPTIVIDTTSSSAATTTPKNMPPRKTGGNKPVPKPVVNTIEYLYFVSDRPKGKGGLDIWYTSYNASKKTWNEPTNLAVANTPETECTPFYHVPTQTLYFSSNGLVNAGGLDIYKLEKDGRRFGRPENLSFPVNSPQDELSFVLADNAKTGFFVSNRPGGTPFFHETCCDDIFSFEVIPPPPFVCTLDLSVLDVAAKNNCDGELLNINQVNLKTKAAEKDTVRLSSCKYTVSLAQHVKYTFFINKPGYVTDTLSFETRDMCATPTITKSLTLVPVSVSMKNSEPVIETPVEGKAFVLKDIQYETNQTDLNDEAKAAIDNILIPFLKEHPTDKIIISSHTDDVGSHKYNENLSDQRALKVMQYLIQKGISAKQIQAKGYGETKPIASNINPDGSENEIGRSINRRTEFLISK	failed
MRLAFWLYEGTALHGVSRVTNSMKGVHTVYHAPQGDDYITATYTMLERTPEFPKLSISVVRGQDLARGTSRLPGTVEQVDKHYKPELIVVAPSCSTALLQEDLGQMARASGVDQSKIMVYAVNPFRVAENEAAEGLFTELVRRFAAEQPKTEKPSVNLLGFTSLGFHLRSNLTSLRRMLKTLGIEVNVVAPWGAGIDDLKKLPAAWVNIAPFREIGCQAAGYLKEKFGMPSITEAPLGVNATLRWLRAIIAEVNKIGAEKGMAPMAMPELRDFSLDGQSAPSSVPWFARTADMESFSNKRAFVFGDATQVVGVTKFLKDELGMKIIGAGTYLPKQADWVREQLEGYLPGELMVTDKFQEVSAFIEEEMPELVCGTQMERHSCRKLDVPCMVISAPTHIENHLLGYYPFFGFDGADVMADRVYTSAKLGLEKHLIDFFGDAGLEYEAEEPEAFTEPTMSGNGTVASVSSAEAPSEAAVVTATATGELSWTAEAEKMLGKVPFFVRKKVRKNTDNYAREIGEPVVTADVFRKAKEHLGGLEHHHHHH	failed
MKAVRVHILGSGGREHAIGWAFAKQGYEVHFYPGNAGTKRDGTNHPYEGEKTLKAIPEEDIVIPGSEEFLVEGVSNWRSNVFGPVKEVARLEGSKVYAKRFMKKYGIRTARFEVAETPEELREKIKKFSPPYVIKADGLARGKGVLILDSKEETIEKGSKLIIGELIKGVKGPVVIDEFLAGNELSAMAVVNGRNFVILPFVRDYKRLMDGDRGPNTGGMGSWGPVEIPSDTIKKIEELFDKTLWGVEKEGYAYRGFLYLGLMLHDGDPYILEYNVRLGDPETEVIVTLNPEGFVNAVLEGYRGGKMEPVEPRGFAVDVVLAARGYPDAPEKGKEITLPEEGLIFFAGVAEKDGKLVTNGGRVLHCMGTGETKEEARRKAYELAEKVHFEGKTYRRDIAL	not failed
MQKKTQKLTVYVIVGLLIISLVGTSFMFLGDMRPTVGKNYQDQINSLKQALEANPQDTQTRLALADTYYDWGMQTLSQDMAEENLATTTSILQQAVTEYQEVLKTEKNVNILVDMATAAFYTSQNELADQTFQEALQEDPNFYNGLYNYGVFLYSQGDYGKAIEQWEKALALENISTDDKERLERNIKLAQDGIVQQFQQPENGDSSDANAEAK	failed
GRRFVMVPGIGGSGPEHWQSHWESLYPNTLRIEPNSWDEPDLADWFAALDRAVAAAPYPPVLVCHSLGCLLFAHWRAASSRAIAAAFLVAVPDPSGPAFPAQAKAFGALPATGFGERPVLAVASENDPYDPEASAIAWAVRQGAWPRRLGPRGHLNEASNIGAWPEGQELLADFLDKIGE	failed
MKKSLDEHAERFSDHADAYDEDQDSAAYRACVNFVVDHAAPESDDVVLDLGTGTGAIAFALASDAAEIIGRDISDGMLEKAREKADGRGVENVSFGDGRFRAPNVDRPVDIVTSNFAMHHLGDDEKREAIDTIADLGPRRIVLGDVMLFGDDDPDAPFYSPEVDDPATVGVLADAFTDAGYALTAVEMVTEQAGVLVAERVKSDLEHHHHHH	not failed
MFRRTLPVLAAAVGLAAAAAGPATADDVPADRLPGHRVLDVMTFNIHHAQGTDDVLDLRRVANVIRKSGADVVGLQEVDKHYSARSDWADQPAELAELLGYHVVFGANIDNSPPAPGGHRVQYGTAILSRYPITASDNTWLYKSPGQEQRGLLHATLDVHGKKVEFYNTHLAAGSQADRLQQTAQVVDLIGTRKPGILVGDFNALPAAPESRPLQNAYTDAWAKSLHARGDGATYPAQSPTERIDLIYATRRVTPLVAQVLKDDPAASDHRPLLGKVLV	failed
MPQDPTERRVVVTGPPRRARRAFDYYRPRTEIDEQTTLGHTYVRSLMRSQLRAGLAVFAVLVLLVGPLPLVFAAIPDARRLTWAVLGFCLYAPLVLLARWYVRRAERNERDFVRLVEDR	failed
MKNRRTRWYRSLALRLLFIFWALLSVTAASGYLLAVWNKPKAELKPLEPEIYQTLQPLLSDALTFHSLQPGRLIAGDYRVAAQLSVQGSEKLLMDEMLRVSHGSTLLRMLGQESPQQIPLDERLLMGPFELDGNKILVTKPLGIEEQVDRERLEAESTRARILTLMVGSGLLAVLLGIWLIRPIRRMILAMREVADGSATPELKRLPKRGDEIGELARALSQGAVDLATSRDAQRRLLSDVSHELRSPMARMQVALDLADCNEDDPNWQQLRRDTERLSVIIERILSLSRLENGLVDLNHESLDSGELVQQLINDMCYQHPEVRERLLRHGSNWPVIDTDPELLRLVLENIVRNALHYTEDNVELSCDDYGKGCHIRIRDHGPGVDESTISKLFVPFYRGDPARHHKAGVGLGLALSHRAAAVLGGELKAHNHSEGGLEVVLDLPKSQPEQKE	failed
MIVLALLGVLLLSVYAYKTKKLTLSGAISAFVVGALISFGLGFKGLLLLAIFFFTSGFWSRFYQERKENEITAKGSTRDGWQVLANGGFAAICALLFSILQDPIYICGFVASLAAANADTWASEVGPLAKRRPIHIIKWKPVDAGTSGAVSAIGTAAAFAGSFIIVVVSIFFWWSSSFASHHLLFSLTLAGFLGNLFDTLVGATGQVLYQCPRCGLETERKIHCNGPTEKKYGLRFLNNDTVNAICTGTGALFGIVAGLILL	failed
MIIEGPVIKFGDKIDTDIIIPARYLKYTDPQYLAQHVMEPLDPEFYKKASKGVIIVAGKVFGMGSSREQAAIALKAAGVKAVVAESFARIFYRNAINNGLPVITLPNSTKEIDENSYVKIDVETGEILVGNKVLKGKGITGMALEILQAGGIMEYLKKMQTVNRN	failed
MTQKFGLSAALTTPFKTDGTVDIDAMIAHARRCLSNGCDSVTLFGTTGEGCSVGSRERQAILSSFIAAGIAPSRIVTGVLVDSIEDAADQSAEALNAGARNILLAPPSYFKNVSDDGLFAWFSAVFSKIGKDARDILVYNIPSVTMVTLSVELVGRLKAAFPGIVTGVKDSSGNWSHTERLLKEHGDLAILIGDERDLARGVRLGGQGAISGVANFLTQEVRAMAVDGKDDPRIVDLVVELLKFPVTPAVKVLVSHTTGETIWSDVRAPLVAISPEDRRQIEGAFDALFRRQAA	not failed
MGFIGSGSIGGTIARLAVAAGHQVVLSNSRGPGSLADTVAELGPRASAATSEEAAAAGDIVVVTVPVTAFPDLPAAPLAGKTVIDTCNYGPERDGHIPELDGTSLTSSELLLRYVPGAMLVKGFNNIYFKHLLSLARPAGATDRSYLPIAGDLAPAKAAATEFIDSIGYGVVDAGLLADSWRQATGTPVWGTPYGPPSNEMGRPTGPGAIRAALATATR	failed
MELFGSFAFFGGALFGGLGLLLYRALGLPWRLGYRHLIGALCLAVWLAVFWTRPYQPLGLLAVASAALWAMRRGYLPTWAAVLLTMAPLLLLKCGITTMTGMLGLSFATFRAVDVLLFAPRNERISPLDYCIYLFFPLTLLAGPMYRWRNFQADLKRGYEGVTLETWLAGLELLIFGVIQKFGVAEAIWRYGLNTLDAHDYSLTGVALNASLYSFYLFFDFAGYSSMAIGVGMLFGFTLPVNFRNPLASANPQDFWRRWHISLSEWLRDVVFMPIYKALSKTAFFGRHRLAAQNIGILATLLAMGVWNGLALHYVVSGLMFGAYSVGHNLLVQHARTRPALQAFLARRPVQWAGRALTLILAALALYVFSGRSPI	failed
MLTGLKIAVIGGDARQLEIIRKLTEQQADIYLVGFDQLDHGFTGAVKCNIDEIPFQQIDSIILPVSATTGEGVVSTVFSNEEVVLKQDHLDRTPAHCVIFSGISNAYLENIAAQAKRKLVKLFERDDIAIYNSIPTVEGTIMLAIQHTDYTIHGSQVAVLGLGRTGMTIARTFAALGANVKVGARSSAHLARITEMGLVPFHTDELKEHVKDIDICINTIPSMILNQTVLSSMTPKTLILDLASRPGGTDFKYAEKQGIKALLAPGLPGIVAPKTAGQILANVLSKLLAEIQAEEGK	failed
MRIETDRLVIRDFEERDAERLYDYLANPPVRCFLDEKINSYDEALRKIRERQGQSDQGDFYAVCLKNAEWLIGEVFWVKEEPDTYSIGWNFNLNYGGKGYATEAVKAAIEELFRGGARRIYAYVEEDNLPSQRLCDRLGMRREGLFLEFISFINNPDGSPRYENTYQYAILKREWLGEGKAT	failed
MARVTVMIPTQRRPDGLAVAARSVFGQVGVDFAELELVIVDNDQVPSAKPVADALRKGAPCPVIYVNEKRPGVAFARNAGMARASGDFIAFLDDDEEAPSGWLAALLAAQERYDADVVFGPVKARAPAHIDQHRDYLERFFSRIGPAQAGVIDYHYGCGDSLIRRSALPDPVAPFAVERNFIGGEDDLLFGHMGAAGKRFAWEPAAWVWEDPVPSRLNLGYTIQRAFAYGQGPSAHCAAAEPRDNLGVARWMLIGVGQAAVFGLVAAVKWAVRAKDRAEWLDRAARGLGKTFWWGPFKIQFYGRTA	failed
MAKTLFWLCLLLPFYAWVGYPLLLALLSLFVRPRPVQEGAPLSVSVIIAAHNEGPHIEHKLRTLLQQDYPATDLQIILASDGSSDDTVATALGVRDSRIVVLDLPRVGKAGALNAAVELARNDILVFTDADNQWSHDTLGKLLAPLSDPQVGACGGHMIIPDPGHNLSLGDSLYRHYEAWLRQAENRTGCMVSADGALLALRRELFQRIPAEVNDDFFISTCAPVAGKRIVYVEEAQVLDQGVDEAGKQYRRRLRVTVGGLQSLAQRRELMNPLRHGAYAIALISHKLIRRLAPVLLLPLLVSSLLLWNAGAFYSLALLAQVLGYGAGIMGLLDRRGRLPKVFRLAGFVLVTMAGMSMGLWQFLRGQRYALWNPQQNR	failed
MREHHHNLRHYTLYAATIITITTLVRFWFVASGQLDLVQDEAQYWDWTRRLQLSYYSKGPLIAWLIGMWTGVFGDTELGVRFGALAGSALAQVMLFLGVGRLFGRPRLALLTLGVANTTPLFMVAGVLMTTDGPLLLCWLGALLCIHAATRTPRATAPYLLLAMCMAVGVLAKYMMLAVAAIACLHMWLLHRQRLLPQGVALRVVCACLAGAACGMLPILLWNAQNDWVGFKHVGTLAGVTGKASKAFLRLDRLPEHLGAQLGVATPWWLLLMLGMAWRSLRIAWTGVVPPGEPAEAAGREEAVRQSSLLFCAFMPLWGVITLWSLHTRIYPNWPAMSYVGGIILAAAGVERLLDGLGAPRWRRLVPLWFTLGACLFAAAHFQNTLPLPASLNPAARLKGWEDLGRELDRVRHGLPHPDRVFFFSDAYDITAELAFYVPGKPFTFCADFGRRMSQYDLWPSPADKVGWDAVFVRRDGTSVPRELLEMFDSAELYRYQSTHHGAPGRVFTVIVLRGFNGEWPRRSFRSF	failed

— a protein production outcome set (Wang et al. 2014)
